Experimental data published in paper PMC3183022 (Molecular Biology of the Cell, 2011).

How the values were obtained:
[1] = target: mouse retrolinkin amino-terminus (amino acids 31–460) fused to GST (mouse, UniProt Q8BHE4 31-460); assay: pull-down
[2] = target: His-tagged retrolinkin (aa 31–460) (mouse, UniProt Q8BHE4 31-460); assay: pull-down
His-tagged retrolinkin (aa 31–460), sequence (Q8BHE4 31-460): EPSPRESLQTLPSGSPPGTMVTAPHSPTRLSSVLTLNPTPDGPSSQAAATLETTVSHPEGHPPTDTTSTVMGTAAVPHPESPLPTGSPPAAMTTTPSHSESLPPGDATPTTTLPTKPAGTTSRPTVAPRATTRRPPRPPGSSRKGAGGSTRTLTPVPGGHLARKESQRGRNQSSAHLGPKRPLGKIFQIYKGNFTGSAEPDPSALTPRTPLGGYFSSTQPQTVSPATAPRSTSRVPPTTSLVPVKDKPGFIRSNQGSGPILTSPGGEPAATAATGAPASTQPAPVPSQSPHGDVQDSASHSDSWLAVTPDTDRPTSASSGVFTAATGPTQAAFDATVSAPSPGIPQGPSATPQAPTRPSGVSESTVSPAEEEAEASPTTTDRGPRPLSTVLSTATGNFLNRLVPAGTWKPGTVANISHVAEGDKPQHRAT

mouse retrolinkin amino-terminus (amino acids 31–460) fused to GST, sequence (Q8BHE4 31-460): as above

Row | binding result [1] | binding result [2] | Binder
1 | binds |  | recombinant His-tagged endophilin A1 (natural protein, mouse, UniProt Q62420 1-352, looked up) MSVAGLKKQFHKATQKVSEKVGGAEGTKLDDDFKEMERKVDVTSRAVMEIMTKTIEYLQPNPASRAKLSMINTMSKIRGQEKGPGYPQAEALLAEAMLKFGRELGDDCNFGPALGEVGEAMRELSEVKDSLDMEVKQNFIDPLQNLHDKDLREIQHHLKKLEGRRLDFDYKKKRQGKIPDEELRQALEKFDESKEIAESSMFNLLEMDIEQVSQLSALVQAQLEYHKQAVQILQQVTVRLEERIRQASSQPRREYQPKPRMSLEFATGDSTQPNGGLSHTGTPKPPGVQMDQPCCRALYDFEPENEGELGFKEGDIITLTNQIDENWYEGMLHGQSGFFPINYVEILVALPH
2 |  | binds | GST-tagged endophilin A1 SH3 domain (aa 295–346) (domain or fragment) not shown
